The values that follow come from paper PMC11500415, “Chemical inhibition of stomatal differentiation by perturbation of the master-regulatory bHLH heterodimer via an ACT-Like domain” (Nature Communications, 2024).

First the molecules themselves.
B1: SCREAM (SCRM), recombinant full-length protein (1-494) (natural protein, A. thaliana, UniProt Q9LSE2 1-494, looked up)
chain: MGLDGNNGGGVWLNGGGGEREENEEGSWGRNQEDGSSQFKPMLEGDWFSSNQPHPQDLQMLQNQPDFRYFGGFPFNPNDNLLLQHSIDSSSSCSPSQAFSLDPSQQNQFLSTNNNKGCLLNVPSSANPFDNAFEFGSESGFLNQIHAPISMGFGSLTQLGNRDLSSVPDFLSARSLLAPESNNNNTMLCGGFTAPLELEGFGSPANGGFVGNRAKVLKPLEVLASSGAQPTLFQKRAAMRQSSGSKMGNSESSGMRRFSDDGDMDETGIEVSGLNYESDEINESGKAAESVQIGGGGKGKKKGMPAKNLMAERRRRKKLNDRLYMLRSVVPKISKMDRASILGDAIDYLKELLQRINDLHNELESTPPGSLPPTSSSFHPLTPTPQTLSCRVKEELCPSSLPSPKGQQARVEVRLREGRAVNIHMFCGRRPGLLLATMKALDNLGLDVQQAVISCFNGFALDVFRAEQCQEGQEILPDQIKAVLFDTAGYAGMI
notes: SCRM (ICE1), A. thaliana, residues 1-494; called full-length in the results; The methods describe thrombin removal of GST for all recombinant proteins; For the BLI runs of SCRM with MUTE one partner must have kept GST (anti-GST probes); also called ICE1; source: E. coli BL21, purified (glutathione resin, thrombin digestion, Superdex-200); not shown: GST, N-terminal, cleaved
B2: MUTE, recombinant full-length protein (1-202), as used in ITC (natural protein, A. thaliana, UniProt Q9M8K6 1-202, looked up)
chain: MSHIAVERNRRRQMNEHLKSLRSLTPCFYIKRGDQASIIGGVIEFIKELQQLVQVLESKKRRKTLNRPSFPYDHQTIEPSSLGAATTRVPFSRIENVMTTSTFKEVGACCNSPHANVEAKISGSNVVLRVVSRRIVGQLVKIISVLEKLSFQVLHLNISSMEETVLYFFVVKIGLECHLSLEELTLEVQKSFVSDEVIVSTN
notes: called full-length in the results; source: E. coli BL21, purified (glutathione resin, thrombin digestion, Superdex-200); not shown: GST, N-terminal, cleaved

Experiment [1] relates to Arabidopsis wild-type (WT) seedlings. In words: Stomatal development bioassay, seedlings in liquid culture. The class given is in vivo. The settings on record: 50 μM; WT seedlings, liquid culture. As to the method:
Arabidopsis accession Columbia (Col-0) was used as wild-type. […] Their genotype and transcript reduction were confirmed. The presence of transgenes/mutant alleles were confirmed by genotyping. For liquid culture with Stomidazolone (AYSJ929, compound 3), the analogs (AYSJ1059 (compound 5) and AYSJ1061 (compound 6)), degraded compound lzx103 (compound 4), and SIM3* (compound 7), all compounds were dissolved in dimethyl sulfoxide (DMSO, Molecular biology grade, Fujifilm Wako, Japan 046-21981), Col-0 seeds were sown in 96-well plates (TL5003; True Line) containing 95 μL of 1/2 MS media containing 0.5% sucrose with rotary shaking at 140 rpm under continuous light at 22 °C. Five μL of compounds were dissolved in DMSO at 10 mM and diluted with liquid 1/2 MS media to 1 mM and added on 1-day-old seedlings (final concentration, 50 μM). Seedlings were incubated for 8 days, and at day 9 seedling abaxial cotyledons were observed through confocal microscopy. For liquid culture of scrm-D_S343 and scrm-D_S423, 1/2 MS liquid media without sucrose was used. For the solid culture, 0, 20, 50 or 100 μM Stomidazolone were solidified with low-melting agarose (5805S, PrimeGelTM Agarose LMT 1-20 K, TAKARA Bio). Briefly, 1/2 MS salt, 0.5% sucrose, and 0.8% low melting agarose were mixed in water and autoclaved. After cooling the medium at around 30 °C, Stomidazolone (500x, dissolved in DMSO) was added and poured into 90 mm petri dishes (Asnol Petri Dish JP φ90 x 15 mm, 3-1491-01, AS ONE). Col-0 seeds were sown on Stomidazolone-containing 1/2 MS agarose media and grown under continuous light for 9 days.
For confocal microscopy, cell peripheries of seedlings were visualized with propidium iodide (Sigma, P4170). Images were acquired using LSM800 or LSM700 (Zeiss) using a 20x lens. The GFP, YFP reporter and PI signals were detected with excitation at 488 nm and an emission filter of 410 to 546 nm, at 488 nm and an emission filter of 410 to 546 nm, and with excitation at 561 nm and 582–617 nm emission range, respectively. Raw data were collected with 1024 × 1024 pixel images. For qualitative image presentation, Adobe Photoshop CC was used to trim and uniformly adjust the contrast/brightness.
For quantitative analysis of the abaxial leaf epidermis, confocal images were taken on the days after germination as indicated in the Figure legends. Preparation of images was done as described previously[32],[70]. For counting epidermal cell types, stomatal density, stomatal precursor cells (meristemoids), total stomata-lineage cells (stomata and meristemoids) were calculated by counting cell types in an area of 0.4 mm^2 (0.63 mm × 0.63 mm) and plotted as per mm^2. A series of Z-stack confocal images was obtained to obtain images covering the epidermis and capturing GFP/YFP signal from the reporter lines. The area and the number of epidermal cells were quantified by using FIJI-ImageJ. Statistical analyses were performed using R ver. 4.0.2. Sample sizes (n) are indicated and defined in each legend. For the multiple sample comparison, 1-way ANOVA was performed followed by a post hoc Tukey HSD test. For the two-sample comparison, Student’s T-test was performed. Graphs were generated using R ggplot2 package. For all boxplots, each box represents IQR (interquartile range), in which top, middle line, and bottom indicating 75, 50, and 25 percentiles, respectively, and the bar representing maximum to minimal values. Each magenta dot represents jittered individual data point. The datapoints that go beyond the bar are outliers, which are indicated as black dots. If the data point is greater than Q3 + 1.5*IQR (above the third quartile is greater than 1.5 times of the interquartile range) or less than Q1 − 1.5*IQR, that data point is classified as outlier. The color of Boxplot graph was based on ColorBrewer.org. The value of n, the number of each experiment or samples, the means of error bars, and how statistical significance was defined are indicated in a relevant figure legend. […]

Another experiment has as its target T1, SCRM-MUTE heterodimer (Arabidopsis thaliana, UniProt Q9M8K6).
T1 construct: expressed in transfected cells; host or cells: yeast strain AH109
T1 sequence (Q9M8K6 1-202): B2 chain
Briefly: Y2H growth and quantitative α-galactosidase assay. It is filed as cell-based. The settings on record: 50 μM; 1 mM 3-AT. As to the method: (§1) Y2H assays were performed using the Matchmaker^TM Two-Hybrid System (Clontech). Bait (pGBKT7) and prey (pGADT7) constructs were co-transformed into the yeast strain AH109 using Frozen-EZ Yeast Transformation II Kit (Zymo Research, T2001). The resulting transformants were spotted on SD ( − Leu, −Trp) and SD ( − Trp, −Leu, −His) selection media containing different concentrations of 3-amino-1,2,4-triazole (Sigma, A8056) as previously reported. Quantitative α-galactosidase assay was also performed according to manufactural instruction (Clontech). Briefly, the transformants were incubated in 2 ml SD medium with 0, 10, 50 100 μM Stomidazolone (3) or SIM3* (7) with rotary shake (220 rpm) at 30 °C overnight. The cultured media containing yeast were transferred to microtubes and centrifuged to obtain the supernatant. The colorimetric assay was performed by incubating 8 μL of supernatant with 24 μL Assay Buffer that contains 0.5 M sodium acetate (pH 4.5) (Nakalai tesque, 31137-25): 100 mM p-nitrophenyl α-D-Galactopyranoside Solution (Sigma N0877) = 2:1 (v/v) at 30 °C for 60 min, then terminated by adding 960 μL 1X Stop Solution (0.1 M sodium carbonate, Fujifilm Wako 195-01582). After OD410 was recorded, α-galactosidase units were calculated according to the protocol (Clontech, P3024-1).

Another experiment addresses T2, SCRM-SPCH heterodimer (Arabidopsis thaliana, UniProt Q700C7).
T2 construct: truncated SPCH and FAMA proteins lacking their N-terminal domain were used in yeast; expressed in transfected cells; host or cells: yeast strain AH109
T2 sequence (Q700C7 98-364 limits assumed): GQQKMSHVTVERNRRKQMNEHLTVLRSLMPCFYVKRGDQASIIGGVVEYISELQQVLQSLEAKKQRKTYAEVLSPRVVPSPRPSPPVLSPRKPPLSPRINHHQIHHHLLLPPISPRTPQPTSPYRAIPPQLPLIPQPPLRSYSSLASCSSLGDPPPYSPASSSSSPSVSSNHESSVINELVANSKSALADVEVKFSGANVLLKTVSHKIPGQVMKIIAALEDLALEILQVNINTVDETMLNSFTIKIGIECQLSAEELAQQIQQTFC
In words: Y2H growth and quantitative α-galactosidase assay. The class given is cell-based. The note with it: 50 μM; 1 mM 3-AT; N-terminally truncated SPCH. As to the method: as §1

In the next experiment the target is T3, SCRM-FAMA heterodimer (Arabidopsis thaliana, UniProt Q56YJ8).
T3 construct: truncated SPCH and FAMA proteins lacking their N-terminal domain were used in yeast; expressed in transfected cells; host or cells: yeast strain AH109
In words: Y2H growth and quantitative α-galactosidase assay. It is filed as cell-based. The settings on record: 50 μM; 1 mM 3-AT; N-terminally truncated FAMA. The method, then:
as §1

The test system of the next experiment is stomatal movement. On the set-up: method as in PMID 35042960. The settings on record: previous chemical screens and SAR studies; cited from earlier work.
Experiment [2] deals with B2. In words: ITC; SCRM to MUTE pre-incubated with Stomidazolone (3); Malvern PEAQ-ITC; PBS with 2% DMSO and 1 mM DTT; methods: 30 °C, pH 7.4; legend of Supplementary Table 2: pH 7.2, 25 °C. The note with it: both partners purified. (In ITC the heat of successive injections is recorded.)
Experiment [3] addresses B2. Briefly: ITC; SCRM to MUTE in the presence of AYSJ1059 (5); Malvern PEAQ-ITC; PBS with 2% DMSO and 1 mM DTT; methods: 30 °C, pH 7.4; legend of Supplementary Table 2: pH 7.2, 25 °C. The settings on record: both partners purified.
In experiment [4] the target is B2. Briefly: ITC; SCRM to MUTE, no compound; Malvern PEAQ-ITC; PBS with 2% DMSO and 1 mM DTT; methods: 30 °C, pH 7.4; legend of Supplementary Table 2: pH 7.2, 25 °C; means of two experiments. The settings on record: both partners purified.
For experiment [5], the target named is B2. Briefly: ITC; SCRM to MUTE in the presence of AYSJ1061 (6); Malvern PEAQ-ITC; PBS with 2% DMSO and 1 mM DTT; methods: 30 °C, pH 7.4; legend of Supplementary Table 2: pH 7.2, 25 °C. The note with it: both partners purified.
Experiment [6] concerns the target B1. In words: ITC; SCRM to MUTE in the presence of AYSJ1059 (5); Malvern PEAQ-ITC; PBS with 2% DMSO and 1 mM DTT; methods: 30 °C, pH 7.4; legend of Supplementary Table 2: pH 7.2, 25 °C. The settings on record: both partners purified.
Experiment [7] has as its target B1. Briefly: ITC; SCRM to MUTE in the presence of AYSJ1061 (6); Malvern PEAQ-ITC; PBS with 2% DMSO and 1 mM DTT; methods: 30 °C, pH 7.4; legend of Supplementary Table 2: pH 7.2, 25 °C. The settings on record: both partners purified.

T3 sequence (Q56YJ8 190-414, one chain of several): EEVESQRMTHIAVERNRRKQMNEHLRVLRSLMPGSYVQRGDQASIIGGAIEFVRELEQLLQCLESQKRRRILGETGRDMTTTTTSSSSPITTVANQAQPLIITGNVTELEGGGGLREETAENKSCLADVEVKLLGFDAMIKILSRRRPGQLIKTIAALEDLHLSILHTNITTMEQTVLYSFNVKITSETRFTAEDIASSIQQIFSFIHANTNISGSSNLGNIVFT

Consider `Cc1nc(-c2ccccc2)c(NS(=O)(=O)c2ccccc2)o1` [SIM3*, reference compound], for which, in [1], the “effect on stomatal development (in words)” value is “no effects”. The “effect on association in Y2H growth assay” value on SCRM-MUTE heterodimer, at SCRM-SPCH heterodimer and on SCRM-FAMA heterodimer was “no effects” in each case. The “effect on stomatal movement (in words)” value in the experiment on stomatal movement was “inhibit stomatal movement”.

In general, stoichiometry N refers to a count of units in the complex or per binding partner. Turning to B1, the “stoichiometry N” value in [2] turned out to be 0.91; in experiment [3], 1; in [4], 0.96; in [5], 1.1.

The Kd is the equilibrium constant for the complex coming apart. Consider B2, for which the Kd is 9.6 ± 1.8 nM in experiment [6] and 11.4 ± 2.1 nM in [7].
